The target of one experiment is D374Y PCSK9/LDLR binding (Homo sapiens, UniProt Q8NBP7, D374Y). Description: Blocking D374Y PCSK9/LDLR binding (Example 9). The following applies: 20 ng/ml biotinylated D374Y PCSK9. Here is the method:
Clear 384 well plates (Costar) were coated with 2 micrograms/ml of goat anti-LDL receptor antibody (R&D Systems) diluted in buffer A (100 mM sodium cacodylate, pH 7.4). Plates were washed thoroughly with buffer A and then blocked for 2 hours with buffer B (1% milk in buffer A). After washing, plates were incubated for 1.5 hours with 0.4 micrograms/ml of LDL receptor (R&D Systems) diluted in buffer C (buffer B supplemented with 10 mM CaCl2). […] The LDL receptor containing plates were washed and the biotinylated D374Y PCSK9/antibody mixture was transferred to them and incubated for 1 hour at room temperature. Binding of the biotinylated D374Y to the LDL receptor was detected by incubation with streptavidin-HRP (Biosource) at 500 ng/ml in buffer C followed by TMB substrate (KPL). The signal was quenched with 1N HCl and the absorbance read at 450 nm.

Experiment [1] has as its target D374Y human PCSK9 (HepG2 cells) (Homo sapiens, UniProt Q8NBP7, D374Y). Description: Cell LDL uptake assay (Example 10). It counts as cell-based. The following applies: 2 μg/ml D374Y human PCSK9, HepG2 cells. Here is the method:
Human HepG2 cells were seeded in black, clear bottom 96-well plates (Costar) at a concentration of 5×10^5 cells per well in DMEM medium (Mediatech, Inc) supplemented with 10% FBS and incubated at 37° C. (5% CO2) overnight. To form the PCSK9 and antibody complex, 2 μg/ml of D374Y human PCSK9 was incubated with various concentrations of antibody diluted in uptake buffer (DMEM with 1% FBS) or uptake buffer alone (control) for 1 hour at room temperature. After washing the cells with PBS, the D374Y PCSK9/antibody mixture was transferred to the cells, followed by LDL-BODIPY (Invitrogen) diluted in uptake buffer at a final concentration of 6 μg/ml. After incubation for 3 hours at 37° C. (5% CO2), cells were washed thoroughly with PBS and the cell fluorescence signal was detected by Safire™ (TECAN) at 480-520 nm (excitation) and 520-600 nm (emission).

Experiment [2] has as its target D374Y PCSK9 binding to LDLR (Homo sapiens, UniProt Q8NBP7, D374Y). Description: Large scale receptor ligand blocking screen and functional classification of ABPs. The settings on record: functional assays of the screening. The procedure: To screen for the antibodies that block PCSK9 binding to LDLR an assay was developed using the D374Y PCSK9 mutant. […] The following protocol was employed in the receptor ligand blocking screen: Costar 3702 medium binding 384 well plates (Corning Life Sciences) were employed in the screen. The plates were coated with goat anti-LDLR (R&D Cat #AF2148) at 2 μg/ml in 1×PBS/0.05% Azide at a volume of 40 μl/well. The plates were incubated at 4° C. overnight. The plates were then washed using a Titertek plate washer (Titertek, Huntsville, Ala.). A 3-cycle wash was performed. The plates were blocked with 90 μl of 1×PBS/1% milk and incubated approximately 30 minutes at room temperature. The plates were then washed using the Titertek plate washer. A 3-cycle wash was performed. The capture sample was LDLR (R&D, Cat #2148LD/CF), and was added at 0.4 μg/ml in 1×PBS/1% milk/10 mM Ca^2+ at a volume of 40 μl/well. The plates were then incubated for 1 hour and 10 minutes at room temperature. Contemporaneously, 20 ng/ml of biotinylated human D374Y PCSK9 was incubated with 15 micro liters of hybridoma exhaust supernatant in Nunc polypropylene plates and the exhaust supernatant concentration was diluted 1:5. The plates were then pre-incubated for about 1 hour and 30 minutes at room temperature. Next, the plates were washed using the Titertek plate washer operated using a 3-cycle wash. 50 μl/well of the pre-incubated mixture was transferred onto the LDLR coated ELISA plates and incubated for 1 hour at room temperature. To detect LDLR-bound b-PCSK9, 40 μl/well streptavidin HRP at 500 ng/ml in assay diluent was added to the plates. The plates were incubated for 1 hour at room temperature. The plates were again washed using a Titertek plate washer. A 3-cycle wash was performed. Finally, 40 μl/well of One-step TMB (Neogen, Lexington, Ky.) was added to the plate and was quenched with 40 μl/well of 1N hydrochloric acid after 30 minutes at room temperature. OD's were read immediately at 450 nm using a Titertek plate reader.
The receptor ligand assay was then repeated using the mutant enzyme on the 384 member subset of neutralizers identified in the first large scale receptor ligand inhibition assay. The same protocol was employed in the screen of the 384 member blocker subset assay as was done in the large scale receptor ligand blocking screen.
Limiting dilution was used to isolate a manageable number of clones from each line. […] The isolated clones were each expanded in 50-100 ml of hybridoma media and allowed to grow to exhaustion, (i.e., less than about 10% cell viability). The concentration and potency of the antibodies to PCSK9 in the supernatants of those cultures were determined by ELISA and by in vitro functional testing, as described herein.

Experiment [3] has as its system wild type (WT) mice (C57BL/6). Description: Serum cholesterol and HDL in 13 day study. The format is in vivo, mouse. The settings on record: 10 mg/kg, repeated 13 day study (FIG. 10C). An excerpt:
Male WT mice (C57BL/6 strain, aged 9-10 weeks, 17-27 g) obtained from Jackson Laboratory (Bar Harbor, Me.) were fed a normal chow (Harland-Teklad, Diet 2918) through out the duration of the experiment. […] Naïve mice were also set aside as naïve control group.
Animals were sacrificed and livers were extracted and prepared as in Example 11.
The HDL levels for the animals in Example 13 were also examined.

B1: 21B12 IgG2: human 21B12 IgG2 antibody produced from transfected cells (antibody)
heavy: QVQLVQSGAEVKKPGASVKVSCKASGYTLTSYGISWVRQAPGQGLEWMGWVSFYNGNTNYAQKLQGRGTMTTDPSTSTAYMELRSLRSDDTAVYYCARGYGMDVWGQGTTVTVSSASTKGPSVFPLAPCSRSTSESTAALGCLVKDYFPEPVTVSWNSGALTSGVHTFPAVLQSSGLYSLSSVVTVPSSNFGTQTYTCNVDHKPSNTKVDKTVERKCCVECPPCPAPPVAGPSVFLFPPKPKDTLMISRTPEVTCVVVDVSHEDPEVQFNWYVDGVEVHNAKTKPREEQFNSTFRVVSVLTVVHQDWLNGKEYKCKVSNKGLPAPIEKTISKTKGQPREPQVYTLPPSREEMTKNQVSLTCLVKGFYPSDIAVEWESNGQPENNYKTTPPMLDSDGSFFLYSKLTVDKSRWQQGNVFSCSVMHEALHNHYTQKSLSLSPGK
light: QSALTQPASVSGSPGQSITISCTGTSSDVGGYNSVSWYQQHPGKAPKLMIYEVSNRPSGVSNRFSGSKSGNTASLTISGLQAEDEADYYCNSYTSTSMVFGGGTKLTVLQPKAAPSVTLFPPSSEELQANKATLVCLISDFYPGAVTVAWKADSSPVKAGVETTTPSKQSNNKYAASSYLSLTPEQWKSHRSYSCQVTHEGSTVEKTVAPTECS
Consider B1, for which the IC50 (as a rule, the concentration that inhibits the measured activity by half) with D374Y PCSK9/LDLR binding was determined as 0.17 nM; in experiment [1], 13.3 nM.

B2: 13B5: anti-PCSK9 antibody; light/heavy variable region SEQ ID NO 42/69 (antibody, listed as Homo sapiens, V domains shown)
VH: EVQLLESGGGLVQPGGSLRLSCAASGFTFSSYAMSWVRQAPGKGLEWVSTISGSGGRTYYADSVKGRFTISRDNSKNTLYLQMNSLRAEDTAVYYCAKEVGSPFDYWGQGTLVTVSS
VL: QSVLTQPPSVSAAPGQKVTISCSGSNSNIGNNYVSWYQQLPGTAPKLLIYDNNKRPSGIPDRFSGSNSGTSATLGITGLQTGDEADYYCGTWDSSLSAVVFGGGTKLTVL
Turning to B2, the “neutralizing ability (blocking PCSK9/LDLR)” value in experiment [2] is recorded as “non-neutralizing”.

B3: 16F12: anti-PCSK9 antibody; light/heavy variable region SEQ ID NO 35/79 (antibody, listed as Homo sapiens, V domains shown)
VH: QVHLVESGGGVVQPGRSLRLSCAASGFTFNSFGMHWVRQAPGKGLEWVALIWSDGSDEYYADSVKGRFTISRDNSKNTLYLQMNSLRAEDTAVYYCARAIAALYYYYGMDVWGQGTTVTVSS
VL: QSVLTQPPSVSAAPGQKVTISCSGSSSNIGNNFVSWYQQLPGTAPKLLIYDYNKRPSGIPDRFSGSKSGTSATLGITGLQTGDEADYYCGTWDSSLSAYVFGTGTRVTVL
Turning to B3, the “total serum cholesterol after a single dose” value in experiment [3] was “significant and substantial decreases in total serum cholesterol”.

B4: 27B2: anti-PCSK9 antibody; light/heavy variable region SEQ ID NO 13/87 (antibody, listed as Homo sapiens, V domains shown)
VH: QVQLQESGPGLVKPSQTLSLTCTVSGGSISSGGYYWSWIRQHPGKGLEWIGYIYNSGSTYYNPSLKSRVTISVDTSKNQFSLKLSSVTAADTAVYYCAREDTAMVPYFDYWGQGTLVTVSS
VL: QSVLTQPPSVSGAPGQRVTISCTGSSSNIGAHYDVHWYQQVPGTAPKLLIYGNTYRPSGVPDRFSGSKSGTSASLAITGLQAEDEADYYCQSYDNSLSGVVFGGGTKLTVL
Consider B4, for which the “neutralizing ability (blocking PCSK9/LDLR)” value in experiment [2] is listed as “non-neutralizing”.

B5: 3B6: anti-PCSK9 antibody; light/heavy variable region SEQ ID NO 46/60 (antibody, listed as Homo sapiens, V domains shown)
VH: QVQLVQSGAEVKKPGASVKVSCKASGYTFTSYGISWVRQAPGQGLEWMGWISTYNGNTNYAQKVQGRVTMTTDTSTSTAYMELRSLRSDDTAVYYCARGYTRDYWGQGTLVTVSS
VL: QPVLTQPLFASASLGASVTLTCTLSSGYSSYEVDWYQQRPGKGPRFVMRVDTGGIVGSKGEGIPDRFSVLGSGLNRYLTIKNIQEEDESDYHCGADHGSGTNFVVVFGGGTKLTVL
For the molecule B5, the “neutralizing ability (blocking PCSK9/LDLR)” value in experiment [2] was “weak neutralizers”.

B6: 25A7: anti-PCSK9 antibody; light/heavy variable region SEQ ID NO 15/58; 25A7.3 referred to as 25A7 (antibody, listed as Homo sapiens, V domains shown)
VH: QVQLVQSGAEVKKPGASVKVSCKASGYTFPSYGISWVRQAPGQGLEWMGWISAYNGNTNYAEKLQGRVTMTTDTSTSTAYMEVRSLRSDDTAVFYCARGYVMDVWGQGTTVTVSS
VL: QSALTQPASVSGSPGQSITISCTGTSSDVGRYNSVSWYQHHPGKAPKVMIYEVSNRPSGVSTRFSGSKSGNTASLTISGLQAEDEADYYCSSYTSSSVVFGGGTKLTVL
Consider B6, for which the “neutralizing ability (blocking PCSK9/LDLR)” value in experiment [2] is on record as “neutralizing”.

B7: 13H1: anti-PCSK9 antibody; light/heavy variable region SEQ ID NO 28/91 (antibody, listed as Homo sapiens, V domains shown)
VH: QVQLQQSGPGLVKPSQTLSLTCAISGDSVSSNSAAWNWIRQSPSRGLEWLGRTYYRSKWYKNYSVSVKSRITINPDTSKNQFSLQLNSVTPGDTAVYYCARGGPTAAFDYWGQGTLVTVSS
VL: LSALTQPASVSGSPGQSITISCTGTSSDVGNYNLVSWYQQYSGKAPKLMIYEVSKRPSGVSNRFSGSKSGNTASLTISGLQAEDEADYYCCSYAGSSTLVFGGGTKLTVL
For the molecule B7, the “neutralizing ability (blocking PCSK9/LDLR)” value in experiment [2] is recorded as “non-neutralizing”.

For the origin of these results see patent US20140004122A1, “METHODS FOR TREATING OR PREVENTING CHOLESTEROL RELATED DISORDERS” (AMGEN INC., priority 2011, published 2014).
